23 sequences from the Immune Epitope Database (IEDB) can be followed below.

Some targets named below: HLA-A*68:01; HLA-A*11:01; HLA-A*03:01; HLA-A*33:01; HLA-A*31:01.
Test in all cases: IEDB peptide-MHC binding, purified MHC/competitive/radioactivity; filed as Kd, often an IC50 or EC50 that approximates it; ≥ and ≤ were set here for values at or beyond the usual limits of such assays
Setting [1] is: source organism: Vaccinia virus WR.
Setting [2] is: source organism: SARS coronavirus Tor2.
Where [3] appears, read: source organism: Vaccinia virus Copenhagen.
Where [4] appears, read: source organism: Lymphocytic choriomeningitis virus (strain Traub).
Where [5] appears, read: source organism: Mammarenavirus machupoense.

One may read the Kd as a measure of binding affinity in units of concentration.

For the sequence MLDTSEKYSK, the Kd in the assay with HLA-A*68:01 (setting [1]) was 4320 nM; with HLA-A*11:01 (setting [1]), 107 nM; with HLA-A*03:01 (setting [1]), 17300 nM; with HLA-A*33:01 (setting [1]) it was not below 70000 nM; with HLA-A*31:01 (setting [1]) it was not below 22300 nM.

Regarding ISYCRAFIY, the Kd with HLA-A*68:01 (setting [1]) came out at 1.35 nM; with HLA-A*11:01 (setting [1]), 0.358 nM; with HLA-A*03:01 (setting [1]), 1.44 nM; with HLA-A*33:01 (setting [1]), 3570 nM; with HLA-A*31:01 (setting [1]), 232 nM.

ATAHSELAK: the Kd was 19.2 nM with HLA-A*68:01 (setting [2]); 5.33 nM with HLA-A*11:01 (setting [2]); 11.6 nM with HLA-A*03:01 (setting [2]); not below 77700 nM with HLA-A*33:01 (setting [2]); 18500 nM in the assay with HLA-A*31:01 (setting [2]).

With SSSLDQTHIK, the Kd was 850 nM in the assay with HLA-A*68:01 (setting [3]); 4.92 nM in the assay with HLA-A*11:01 (setting [3]); 90 nM in the assay with HLA-A*03:01 (setting [3]); not below 26000 nM with HLA-A*33:01 (setting [3]); 868 nM with HLA-A*31:01 (setting [3]).

Take MVDVSMMSMY: the dissociation constant (Kd) in the assay with HLA-A*68:01 (setting [1]) is 148 nM; in the assay with HLA-A*11:01 (setting [1]), 2040 nM; with HLA-A*03:01 (setting [1]), 2330 nM; with HLA-A*33:01 (setting [1]) it was not below 30600 nM; in the assay with HLA-A*31:01 (setting [1]), not below 23900 nM.

As for SFIISTLNK, the Kd was 9.98 nM in the assay with HLA-A*68:01 (setting [1]); 5.35 nM in the assay with HLA-A*11:01 (setting [1]); 57.4 nM in the assay with HLA-A*03:01 (setting [1]); 8110 nM in the assay with HLA-A*33:01 (setting [1]); 5.1 nM with HLA-A*31:01 (setting [1]).

As for QTVNICIFY, the Kd with HLA-A*68:01 (setting [1]) came to 1.96 nM; with HLA-A*11:01 (setting [1]), 39.9 nM; with HLA-A*03:01 (setting [1]), 828 nM; with HLA-A*33:01 (setting [1]), 10500 nM; with HLA-A*31:01 (setting [1]), 839 nM.

Turning to YFISIYSRPK, the Kd stood at 25.2 nM with HLA-A*68:01 (setting [1]); 853 nM in the assay with HLA-A*11:01 (setting [1]); 220 nM with HLA-A*03:01 (setting [1]); 107 nM in the assay with HLA-A*33:01 (setting [1]); 112 nM with HLA-A*31:01 (setting [1]).

As to MLVYCFLGY, the Kd in the assay with HLA-A*68:01 (setting [2]) is 1140 nM; in the assay with HLA-A*11:01 (setting [2]) it was 120 nM; with HLA-A*03:01 (setting [2]), 136 nM; in the assay with HLA-A*33:01 (setting [2]), 7380 nM; in the assay with HLA-A*31:01 (setting [2]) it was 907 nM.

Turning to KASTISWMMK, the Kd was 134 nM with HLA-A*68:01 (setting [1]); 5.49 nM with HLA-A*11:01 (setting [1]); 45 nM with HLA-A*03:01 (setting [1]); not below 50400 nM in the assay with HLA-A*33:01 (setting [1]); 88 nM in the assay with HLA-A*31:01 (setting [1]).

With KCHDHYLCRH, the Kd with HLA-A*68:01 (setting [4]) was not below 70100 nM; in the assay with HLA-A*11:01 (setting [4]), not below 69700 nM; with HLA-A*03:01 (setting [4]), not below 24800 nM; in the assay with HLA-A*33:01 (setting [4]), not below 70000 nM; with HLA-A*31:01 (setting [4]), 9650 nM.

Regarding GALHLYFDK, the Kd turned out to be 4970 nM with HLA-A*68:01 (setting [2]); 0.928 nM with HLA-A*11:01 (setting [2]); 486 nM in the assay with HLA-A*03:01 (setting [2]); 15400 nM with HLA-A*33:01 (setting [2]); 143 nM in the assay with HLA-A*31:01 (setting [2]).

As to NMKPNFWSR, the Kd is 208 nM with HLA-A*68:01 (setting [1]); not below 34700 nM with HLA-A*11:01 (setting [1]); not below 78000 nM with HLA-A*03:01 (setting [1]); 1.06 nM with HLA-A*33:01 (setting [1]); 0.349 nM in the assay with HLA-A*31:01 (setting [1]).

Regarding TLNEYKQLY, the Kd with HLA-A*68:01 (setting [1]) was 1360 nM; with HLA-A*11:01 (setting [1]) it was 124 nM; with HLA-A*03:01 (setting [1]) it was 56.7 nM; with HLA-A*33:01 (setting [1]), 7000 nM; in the assay with HLA-A*31:01 (setting [1]) it was 1350 nM.

Turning to GTDDEVIER, the Kd in the assay with HLA-A*68:01 (setting [1]) is 634 nM; in the assay with HLA-A*11:01 (setting [1]) it was 369 nM; with HLA-A*03:01 (setting [1]), not below 63500 nM; with HLA-A*33:01 (setting [1]) it was 1170 nM; with HLA-A*31:01 (setting [1]), 2230 nM.

Turning to NVKHTSVSAK, the equilibrium dissociation constant (Kd) with HLA-A*68:01 (setting [1]) stood at 502 nM; in the assay with HLA-A*11:01 (setting [1]) it was 3350 nM; with HLA-A*03:01 (setting [1]) it was 519 nM; with HLA-A*33:01 (setting [1]), 8280 nM; with HLA-A*31:01 (setting [1]), 10300 nM.

For the sequence KAKWLTPFEK, the Kd with HLA-A*68:01 (setting [1]) is 11800 nM; in the assay with HLA-A*11:01 (setting [1]), 249 nM; with HLA-A*03:01 (setting [1]) it was 212 nM; with HLA-A*33:01 (setting [1]), not below 70000 nM; with HLA-A*31:01 (setting [1]), 115 nM.

LQGPPGTGK: the Kd in the assay with HLA-A*68:01 (setting [2]) is 10900 nM; with HLA-A*11:01 (setting [2]) it was 40.1 nM; with HLA-A*03:01 (setting [2]) it was 459 nM; with HLA-A*33:01 (setting [2]) it was not below 77700 nM; with HLA-A*31:01 (setting [2]), 1260 nM.

Regarding FTLNHVLALK, the Kd was 4.61 nM in the assay with HLA-A*68:01 (setting [1]); 7.96 nM with HLA-A*11:01 (setting [1]); 10.6 nM with HLA-A*03:01 (setting [1]); 1710 nM with HLA-A*33:01 (setting [1]); 135 nM in the assay with HLA-A*31:01 (setting [1]).

AALDGTFQRK: the Kd with HLA-A*68:01 (setting [1]) is 8290 nM; with HLA-A*11:01 (setting [1]) it was 8.05 nM; with HLA-A*03:01 (setting [1]) it was 49.4 nM; with HLA-A*33:01 (setting [1]), not below 70000 nM; with HLA-A*31:01 (setting [1]) it was 4280 nM.

As to TTAFFNTCK, the Kd in the assay with HLA-A*68:01 (setting [1]) stood at 0.947 nM; in the assay with HLA-A*11:01 (setting [1]), 0.492 nM; with HLA-A*03:01 (setting [1]) it was 46.2 nM; with HLA-A*33:01 (setting [1]), 997 nM; with HLA-A*31:01 (setting [1]) it was 226 nM.

Consider SNIQFNISK, for which the Kd amounted to 15 nM with HLA-A*68:01 (setting [5]); 12.2 nM in the assay with HLA-A*11:01 (setting [5]); 4910 nM with HLA-A*03:01 (setting [5]); 10900 nM with HLA-A*33:01 (setting [5]); 1740 nM with HLA-A*31:01 (setting [5]).

On to IVQLPKRGVR, for which the Kd with HLA-A*68:01 (setting [1]) was 19000 nM; with HLA-A*11:01 (setting [1]) it was not below 25700 nM; with HLA-A*03:01 (setting [1]), 15800 nM; with HLA-A*33:01 (setting [1]), 12500 nM; with HLA-A*31:01 (setting [1]), 1230 nM.
